Target: ACE2 receptor on Vero E6 cells (African green monkey (endogenous in Vero E6))
Experiment: flow cytometry on cells; HIS-tagged S protein incubated with 1.5 × 10^5 Vero E6 cells (ACE2+), 37°C for 1 hour, in 1% BSA in PBS with 0.02% sodium azide; detected with FITC-labeled anti-HIS Ab

In the case of “recombinant SARS-CoV-2 S protein, fused with a HIS tag at the C terminus (from UniProt P0DTC2) (natural protein)”, the concentration at binding saturation is reported as 200 nM.

— paper PMC7875332
